For orientation: Kd means the constant that tells how readily two partners part at equilibrium.

Changes are numbered by the printed parent chain.

Series [1] concerns the target T1, BANP BEN WT (human, UniProt Q8N9N5 205-325).
T1 sequence: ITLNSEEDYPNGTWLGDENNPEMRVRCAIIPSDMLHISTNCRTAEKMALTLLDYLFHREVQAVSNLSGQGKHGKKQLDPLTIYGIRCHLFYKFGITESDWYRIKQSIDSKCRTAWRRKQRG
Nature of the series: ITC; text gives 2.5 uM; ITC: 20 mM Tris pH 7.5, 200 mM NaCl, 2 mM beta-mercaptoethanol, 20 C; EMSA: 20 mM Tris pH 7.0, 200 mM NaCl, 2 mM DTT, 4 C, 1.2% agarose in TAE. Particulars: protein: recombinant; tags: His-SUMO or His-MBP, cleaved; chain copies: 2; blunt, self-complementary. Background: Isothermal titration calorimetry measures the heat released or taken up as one component is titrated into another.

In series [2] the target is T2, BANP BEN S310A (human, UniProt Q8N9N5 205-325, S310A).
T2 sequence: T1 sequence with S106A
Nature of the series: ITC; ITC: 20 mM Tris pH 7.5, 200 mM NaCl, 2 mM beta-mercaptoethanol, 20 C; EMSA: 20 mM Tris pH 7.0, 200 mM NaCl, 2 mM DTT, 4 C, 1.2% agarose in TAE. Particulars: protein: recombinant; tags: His-SUMO or His-MBP, cleaved; chain copies: 2; blunt, self-complementary.

The target in series [3] is T3, BANP CC-BEN (ΔDBD) (human, UniProt Q8N9N5 1-360).
T3 sequence: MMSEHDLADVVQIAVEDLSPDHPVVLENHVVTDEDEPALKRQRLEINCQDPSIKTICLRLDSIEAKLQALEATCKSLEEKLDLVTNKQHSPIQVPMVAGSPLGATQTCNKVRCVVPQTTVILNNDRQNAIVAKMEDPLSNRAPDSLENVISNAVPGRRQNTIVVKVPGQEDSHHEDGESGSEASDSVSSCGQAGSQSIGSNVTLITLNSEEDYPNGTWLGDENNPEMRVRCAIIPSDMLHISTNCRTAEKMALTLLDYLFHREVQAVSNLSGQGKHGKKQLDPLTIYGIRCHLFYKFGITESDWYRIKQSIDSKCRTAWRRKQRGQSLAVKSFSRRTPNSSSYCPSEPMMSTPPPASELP
The series is described as above. Particulars: protein: recombinant; tags: His-SUMO or His-MBP, cleaved; blunt, self-complementary.

In series [4] the target is T4, BANP ΔCC (human, UniProt Q8N9N5 90-519).
T4 sequence: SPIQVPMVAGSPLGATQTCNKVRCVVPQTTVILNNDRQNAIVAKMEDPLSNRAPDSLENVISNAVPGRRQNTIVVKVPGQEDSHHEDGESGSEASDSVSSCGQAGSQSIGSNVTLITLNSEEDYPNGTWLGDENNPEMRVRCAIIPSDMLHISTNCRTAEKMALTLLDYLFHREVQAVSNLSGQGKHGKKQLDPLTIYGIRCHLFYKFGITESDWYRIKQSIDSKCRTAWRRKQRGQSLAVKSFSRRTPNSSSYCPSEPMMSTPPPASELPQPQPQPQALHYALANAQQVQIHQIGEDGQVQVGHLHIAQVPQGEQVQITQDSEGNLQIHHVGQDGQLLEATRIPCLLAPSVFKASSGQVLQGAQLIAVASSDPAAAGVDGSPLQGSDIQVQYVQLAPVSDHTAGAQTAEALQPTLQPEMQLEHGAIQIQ
Described as above. The conditions noted are these: protein: recombinant; tags: His-SUMO or His-MBP, cleaved; blunt, self-complementary.

B1: 12-CGCG (dsDNA)
DNA 1: ATCTCGCGAGAT
DNA 2: ATCTCGCGAGAT
As to B1, the dissociation constant Kd is 2.6 ± 0.4 µM in series [1], 12.8 ± 0.9 µM in series [2], 2.9 ± 0.7 µM in series [3] and 3.4 ± 0.5 µM in series [4].

For the origin of these results see PMC11472053, “Structural basis of DNA recognition by BEN domain proteins reveals a role for oligomerization in unmethylated DNA selection by BANP” (Nucleic Acids Research, 2024).
